Experimental data reported in the supplement of paper PMC10126150.
± gives the standard deviation of the averaged measurements.

Test system: ATP
Test: switch fluorescence ratio, 500 uM ATP over buffer (Cy3 cluster intensity, sum of 5 cycles each) (fold (ratio)); higher = stronger signal-on switching upon ATP binding; sequences stand for … in TCGTCGGCAGCGTCAGATGTGTATAAGAGACAGTTTTTTTTTTTTTTTTTTTTTTTTT…TC
Details: aptamer strand: ATP DNA aptamer (quencher-CACCTGGGGGAGTATTGCGGAGGAAGG + anchor), 100 nM annealed; ATP concentration: 500 uM
Method in brief: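 The fluorescence ratio divides summed target-cycle Cy3 intensity by summed buffer-cycle Cy3 intensity for each cluster and is averaged per switch-domain sequence. Cy3-labelled switching-strand clusters on a modified Illumina MiSeq flow-cell were annealed to 100 nM quencher-labelled ATP aptamer, then imaged in selection buffer and again after 15 min with 500 uM ATP at 22 °C. Five such cycles were run, with NaOH stripping and re-annealing between them, and clusters outside 100-1000 RFU were excluded.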
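Further: ATP exposure 15 min at 22 °C before imaging.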

Sequence | switch fluorescence ratio
GGGTATTTAG | 0.983 ± 0.033
ACCAATTCGC | 1.06 ± 0.029
ATTATTTTGC | 0.9464 ± 0.0026
ACAGGGAAAT | 0.994 ± 0.038
TCTTTTGCTT | 1.01 ± 0.032
TGGCCTAATG | 0.965 ± 0.013
AGGCCGGTGA | 1.01 ± 0.018
TTGGTGAGGG | 0.978 ± 0.022
AATGTTAGAA | 0.99 ± 0.05
TAAGGGTTG | 0.985 ± 0.058
CTGATGTCGC | 1.074 ± 0.0034
TATGCTTGA | 0.986 ± 0.036
GGCGGATAAG | 0.979 ± 0.013
GGCGATCACG | 0.9834 ± 0.006
GCGTTTTAGC | 0.995 ± 0.041
AGATTTGTGG | 0.9917 ± 0.0033
GGTGCGGGAT | 0.992 ± 0.043
CAGTAGGTGG | 1 ± 0.028
TTGGGGACGT | 1.01 ± 0.042
TGCTTTTTAG | 0.988 ± 0.029
GGGGCGTTTG | 0.961 ± 0.057
GTTTACTTAG | 1.024 ± 0.005
GGACGGGTTT | 1 ± 0.031
GGCTAAAATT | 0.999 ± 0.042
GAATAGGGGG | 1.013 ± 0.0094

Sequence | switch fluorescence ratio
AGCCTGACTG | 1.12 ± 0.033
CAGTGGGGGG | 1.01 ± 0.039
GTGGTAGTGG | 0.949 ± 0.023
AGATGTGACG | 0.9686 ± 0.0087
TTGTCGGGTT | 1.01 ± 0.018
TGAGCCCGCT | 1 ± 0.016
AAGTATTGTT | 1 ± 0.019
ATGTCGAGGT | 1.01 ± 0.035
AGGGGGTCGT | 0.98 ± 0.017
CCTTTAAAAT | 1.4 ± 0.41
AGTTACCTCT | 1.03 ± 0.013
GTTTGTGTTG | 0.993 ± 0.017
TAAGGGAGTA | 1.004 ± 0.0065
AAAAATGCCG | 0.99 ± 0.019
GGGCAGGGGT | 1.45 ± 0.84
ACGGGGGTTG | 1.03 ± 0.06
CTGGGGTGGG | 1.01 ± 0.042
GGCTATGGTG | 1.004 ± 0.01
GAGGTGCATG | 0.949 ± 0.024
TTGTTCCGTT | 0.9874 ± 0.0066
GGGTCTTGAT | 0.9675 ± 0.0047
ATGGGAGGTC | 0.97 ± 0.0071
TTGTTTGGGA | 1.02 ± 0.034
GGGGTATACC | 0.956 ± 0.021
TTAGAATGTA | 0.99 ± 0.023

Sequence | switch fluorescence ratio
AAGTAGTGGT | 0.979 ± 0.025
GAAAGGCTCT | 0.9793 ± 0.0031
AGTATCATTT | 0.952 ± 0.02
AGTCAATTGC | 1 ± 0.033
ATAACCATCA | 0.996 ± 0.057
AGTATTGCGA | 0.974 ± 0.01
CGGAGGATGC | 1.31 ± 0.019
GCCTCGGGGC | 1.02 ± 0.032
TGTTGGTTGT | 0.9935 ± 0.0067
ATCAGCCGGC | 0.99 ± 0.034
GGAGCTTGCA | 1.02 ± 0.023
TTGACGCGTC | 1.02 ± 0.018
TTCTTTCTGT | 0.998 ± 0.0026
CACGGGGGAG | 1.005 ± 0.0096
GCGCTGTTGG | 0.9996 ± 0.0035
TGGGTATTAC | 1.14 ± 0.26
CAGAGGGC | 1.04 ± 0.04
CCTGATGGGG | 1.01 ± 0.017
TAGTTAGAAG | 1.08 ± 0.13
TGGTTCAGCC | 0.9868 ± 0.0033
ACAACTTTTT | 1.02 ± 0.044
GGTACACACA | 1.26 ± 0.061
AATATATTTT | 0.999 ± 0.047
ATGTAGAGG | 0.988 ± 0.013
ACTAACTTTC | 1.1 ± 0.097

Sequence | switch fluorescence ratio
AAACTCTTTT | 0.978 ± 0.039
GCATCCCGAG | 1.02 ± 0.025
AATCGTCTGG | 0.993 ± 0.019
TCCTGCAAGG | 1.07 ± 0.05
TGGATGAGGG | 0.99 ± 0.03
GGGTTTACGG | 1.02 ± 0.017
GCGAGGAATA | 1.2 ± 0.079
ATAGAGGTAG | 0.976 ± 0.017
TGTGGGGGG | 0.951 ± 0.025
ATAGGGGGTG | 1.03 ± 0.034
GTGGTGGCTG | 0.976 ± 0.048
TATACGCTTG | 1.001 ± 0.0079
CGTTAATTAG | 1.02 ± 0.042
GTCTAAAATC | 0.978 ± 0.038
GCTTAGTGGT | 0.981 ± 0.025
AATGGTGTAA | 0.99259 ± 0.00066
TTCGGCGAGA | 0.989 ± 0.021
ATAGGAGCGT | 0.979 ± 0.038
AGGGTAAGGT | 1.04 ± 0.082
CTGGAACGTC | 0.989 ± 0.026
ATCAGAATAC | 1.74 ± 0.43
TCCCAATGCT | 4.02 ± 0.55
ACAAGTTTTG | 1.04 ± 0.0022
ATGGGGATTG | 0.983 ± 0.048
CGTAGAGAAA | 0.991 ± 0.044

Sequence | switch fluorescence ratio
GAGGGTTGCG | 0.973 ± 0.011
TTTCGGTGGC | 0.99 ± 0.072
GTTTATCTGC | 1.02 ± 0.025
GAAATTGTTT | 0.991 ± 0.015
GGTGTGCTTT | 1.02 ± 0.025
TGGGGTTGGC | 1.17 ± 0.34
AAGTATAATA | 1.01 ± 0.035
AAAGGAGGGT | 0.9994 ± 0.0062
ATGCGCAGAA | 1.01 ± 0.034
CGTTAATTTA | 1.01 ± 0.034
GGAGAATGCC | 1.04 ± 0.053
AAGTGATTGT | 0.994 ± 0.028
TGCGATTTAC | 1.15 ± 0.024
GCATCGAGGC | 1.01 ± 0.14
GCGGTAGTCG | 1.02 ± 0.052
GGTTTTTTGA | 1.01 ± 0.038
CTGGGGGGAT | 0.987 ± 0.021
AGGCCTTTTG | 0.956 ± 0.033
CCTGAGAGAG | 1.034 ± 0.0052
ATGTTGAGTG | 0.995 ± 0.031
GGTATACGCA | 1.14 ± 0.028
TCAAGAGTTC | 1.01 ± 0.06
ATTGATTTGC | 0.997 ± 0.058
TAAGGGGGCA | 1.01 ± 0.052
GAGGGGGCCT | 0.989 ± 0.049

Sequence | switch fluorescence ratio
TTAAAACTTT | 1.02 ± 0.025
TTTGTAAGTG | 0.988 ± 0.018
GAACTAGTAT | 1.01 ± 0.013
ATAAGGGTAG | 1.028 ± 0.0054
TTGTGGGGCG | 0.986 ± 0.068
ATTGAGTTCT | 1 ± 0.012
TTGGGTAGGG | 1.01 ± 0.051
TTTGGTTGTT | 0.988 ± 0.019
GAGGGTAAAT | 1.02 ± 0.023
TCTGGCGGC | 0.981 ± 0.039
TGCCACGTAA | 1.3 ± 0.065
TTCAGATGAA | 0.9987 ± 0.0015
GCGGTACACG | 1.01 ± 0.027
GGTCAGTTAT | 0.99 ± 0.047
GCTCAAATGG | 1.04 ± 0.013
TTCTTGGTG | 1.02 ± 0.072
TTTGTCTTC | 0.95 ± 0.015
ACCTTGAATT | 1 ± 0.0029
AAGATGTTTT | 1.01 ± 0.04
TTAAATAGAT | 1.01 ± 0.02
AGGTTCAGTC | 1.02 ± 0.022
CGGTATGTAT | 1.02 ± 0.042
TTGTATTTGC | 0.976 ± 0.031
GGCGCACTAT | 1.22 ± 0.051
GTTATTCATT | 1.004 ± 0.0034

Sequence | switch fluorescence ratio
TTCATCATGT | 1.02 ± 0.023
AGTCGGGCGG | 1 ± 0.026
CTTGGGCCGC | 1.13 ± 0.048
CAGTAATGCG | 0.99757 ± 0.00094
ATGATTTGGC | 1.04 ± 0.048
AAGTTTTTGT | 0.9997 ± 0.0081
AGGGCGACCG | 1.07 ± 0.069
TAGGCGGGGT | 0.977 ± 0.05
AGGTTCCTGT | 0.9944 ± 0.0091
GATTAGAAGG | 1 ± 0.026
TCGGGGGATG | 0.987 ± 0.019
ATGCGTTTTG | 1.01 ± 0.017
AATTGGTAGC | 0.966 ± 0.015
CAGCGTGGGG | 1.022 ± 0.0092
GGGGATGGGG | 1.02 ± 0.044
CGATTTTCGT | 0.998 ± 0.044
GCAGGGGACG | 1.05 ± 0.015
ATTCATGAT | 0.969 ± 0.044
GCTGGAGGTG | 1.03 ± 0.039
TCGGAGTTTG | 0.9963 ± 0.0024
GGGAAATCAG | 0.9838 ± 0.0076
AACGTTGGTT | 1.01 ± 0.012
TCCGACTGGT | 1.127 ± 0.0014
GGACTTTTTG | 0.953 ± 0.045
GTTGTGGTCA | 0.9771 ± 0.0067

Sequence | switch fluorescence ratio
ATATAGTCCT | 0.9714 ± 0.0023
GGAATAGGGA | 0.982 ± 0.052
CTGAACTCGT | 1.03 ± 0.018
CTTGCGGTTC | 1.11 ± 0.05
CGGGTTAGAG | 0.968 ± 0.019
GGACGTATTA | 1.03 ± 0.051
GGACCGGACG | 1.106 ± 0.0093
CCGGGGGTCG | 1.06 ± 0.074
AAAAACATGG | 1.012 ± 0.0096
ATGGGGGATT | 1 ± 0.025
CGGGCCTTGG | 1.026 ± 0.0016
TTTATTAGGC | 0.996 ± 0.022
CGGTGTGACA | 0.993 ± 0.051
ACATCGGAAC | 1.04 ± 0.015
GGGTAGGGAT | 1 ± 0.032
ATTTTGCCTT | 1 ± 0.015
TGGGAAAATC | 1.63 ± 0.81
TGTTAGGGGA | 1.01 ± 0.02
GGTCATAGGT | 0.994 ± 0.022
TTGCGGTTGA | 1.0313 ± 0.00057
TTGGGAAATA | 1.01 ± 0.024
TGTTGGGGGA | 0.979 ± 0.03
AGAGTGAGTT | 0.9533 ± 0.0045
TTTGGTGTAG | 1.02 ± 0.015
AAGGAGGGGA | 0.978 ± 0.02
